The record followed here is patent US20220016165A1.

The assay concerns the target interleukin-6 receptor (IL-6R) (human) (UniProt P08887). The experiment in a line: cell-based or functional assay.

Sequence of interleukin-6 receptor (IL-6R) (human) (P08887 20-468 limits assumed): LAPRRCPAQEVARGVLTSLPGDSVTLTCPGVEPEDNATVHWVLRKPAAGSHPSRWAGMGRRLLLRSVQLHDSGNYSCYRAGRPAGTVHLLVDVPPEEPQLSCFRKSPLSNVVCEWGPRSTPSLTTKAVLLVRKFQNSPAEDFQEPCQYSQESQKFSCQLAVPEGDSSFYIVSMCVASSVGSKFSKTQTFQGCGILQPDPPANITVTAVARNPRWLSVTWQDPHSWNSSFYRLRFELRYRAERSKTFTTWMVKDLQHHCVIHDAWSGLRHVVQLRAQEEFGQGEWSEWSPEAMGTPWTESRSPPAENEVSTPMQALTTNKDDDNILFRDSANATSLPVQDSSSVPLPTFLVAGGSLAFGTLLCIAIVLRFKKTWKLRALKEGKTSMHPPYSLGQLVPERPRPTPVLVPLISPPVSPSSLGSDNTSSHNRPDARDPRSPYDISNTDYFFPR

In turn, tocilizumab (antibody) gave a median peak levels of serum IL-6 (day 3-5) of 10 fold.
